FcRn concentration that lowers by 50% the infectivity of the WT chimeric HAstV-1/HAstV-8 virus in Caco-2 cells (neutralization assay with different concentrations of FcRn) data for one substance are collected here from article PMC12289001.

The assay addresses T1, purified HAstV-8 virus particles (strain Yuc-8) (human astrovirus serotype 8 (HAstV-8), strain Yuc-8) (UniProt Q9IFX1).
T1 sequence 1: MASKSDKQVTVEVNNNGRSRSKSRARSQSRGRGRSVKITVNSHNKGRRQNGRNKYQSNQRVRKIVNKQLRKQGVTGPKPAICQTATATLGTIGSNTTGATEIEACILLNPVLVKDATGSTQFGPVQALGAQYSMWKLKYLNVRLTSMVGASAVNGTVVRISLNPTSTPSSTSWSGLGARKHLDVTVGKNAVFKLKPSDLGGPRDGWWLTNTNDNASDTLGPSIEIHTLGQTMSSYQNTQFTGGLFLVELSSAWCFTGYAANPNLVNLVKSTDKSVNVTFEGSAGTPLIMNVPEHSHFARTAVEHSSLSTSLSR
T1 sequence 2: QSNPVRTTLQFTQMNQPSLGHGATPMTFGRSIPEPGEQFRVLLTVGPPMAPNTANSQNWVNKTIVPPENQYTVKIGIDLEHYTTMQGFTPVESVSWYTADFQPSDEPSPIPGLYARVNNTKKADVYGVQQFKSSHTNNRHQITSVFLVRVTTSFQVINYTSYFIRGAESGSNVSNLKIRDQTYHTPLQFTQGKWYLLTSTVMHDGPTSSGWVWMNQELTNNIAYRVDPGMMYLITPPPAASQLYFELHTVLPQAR

recombinant human FCGRT & B2M heterodimer protein (SinoBiological #CT009-H08H), sequence (P55899 24-297): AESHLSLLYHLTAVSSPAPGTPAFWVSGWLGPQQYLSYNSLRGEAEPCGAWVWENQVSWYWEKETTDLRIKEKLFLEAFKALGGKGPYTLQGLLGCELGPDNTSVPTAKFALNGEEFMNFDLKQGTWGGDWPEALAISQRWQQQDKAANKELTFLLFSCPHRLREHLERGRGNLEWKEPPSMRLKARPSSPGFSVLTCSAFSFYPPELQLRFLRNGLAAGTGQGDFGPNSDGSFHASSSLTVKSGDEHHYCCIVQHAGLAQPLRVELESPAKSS
recombinant human FCGRT & B2M heterodimer protein (SinoBiological #CT009-H08H), sequence (P61769 21-119): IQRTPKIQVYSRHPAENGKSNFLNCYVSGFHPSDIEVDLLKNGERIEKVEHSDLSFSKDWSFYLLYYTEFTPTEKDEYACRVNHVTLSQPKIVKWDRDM

In turn, “recombinant human FCGRT & B2M heterodimer protein (SinoBiological #CT009-H08H) (from UniProt P55899 24-297; P61769 21-119) (receptor)” showed a FcRn concentration that lowers by 50% the infectivity of the WT chimeric HAstV-1/HAstV-8 virus in Caco-2 cells (neutralization assay with different concentrations of FcRn) of 100 ng/mL.
